# Where a chain is given by its changes, count along the chain named.
# B1: ABU-208 (antibody, V domains shown)
# VH: QVQLVESGGGVVQPGRSLRLSCVASGFTFSNYDMHWVRQAPGKGLEWVTVISSDGNNRRYADSVKGRFTISRDNSKNMLYLQMNSLKAEDTAVYYCARDEVIAVATGEGMDVWGQGTTVTVSP
# VL: EIVMTQSPAILSVSPGERATLSCRASQSVTRNLAWYQQKPGQAPRLLIYGASTRATNIPARFSGSGFGTEFTLIISSLQSEDFAVYYCQQYSNWPLYTFGQGTKLEIK
# B2: ABU-352 (antibody, V domains shown)
# VH: EVQLVESGGGLIQPGGSLRLSCAASGLTVSSNYMTWVRQAPGKGLEWVSVIYSGGSTFYADSVKGRFTISRHNSKNTLYLQMNSLRAEDTAVYYCARDAMSYGMDVWGQGTTVTVSS
# VL: DIQMTQSPSSLSASVGDRVTITCRASQSISNFLNWYQQKPGKAPKLLIYAASSLQSGVPSRFSGSGSGTGFTLTISSLQPEDFATYYCQQSYSTPPDTFGQGTRLEIK
# B3: ABU-385 (antibody, V domains shown)
# VH: EVQLVESGGGLVQPGGSLRLSCAASGFTVSSNYMSWVRQAPGKGLEWVSVIYSGGSTYYADSVKGRFTISRDNSKNTLYLQMNSLRAEDTAVYYCARELSYSSSSGVGPKYWGQGTLVTVSS
# VL: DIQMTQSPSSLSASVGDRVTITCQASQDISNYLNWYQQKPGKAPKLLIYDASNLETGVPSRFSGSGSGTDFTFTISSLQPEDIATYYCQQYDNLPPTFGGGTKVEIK
# B4: ABU-174 (antibody, V domains shown)
# VH: QVQLQQWGAGLLKPSETLSLTCAVYGGSFSDYYWNWIRRPPGKGLEWIGEITHSGSTNYNPSLKSRVTISVDTSKNQFSLKLSSVTAADTAVYYCARGQGYGRVLLWFGEWGQGTLVTVSS
# VL: EIVLTQSPATLSLSPGERATLSCRASQSVSTYLAWYQQKPGQAPRLLIYDASNRATGIPARFSGSGSGTDFTLTISSLEPEDFAVYYCQQRSNWITFGQGTRLEIK
# B5: ABU-290 (antibody, V domains shown)
# VH: QVQLVQSGAEVKKPGASVKVSCKASGFTFGRHGITWVRQAPGQGLEWMGWISTYSGNTNYAQNLQGRVTMTTDTSTNTAYMELRSLFFDDTAVYYCAKAVSGWPIYFDAWGQGTLVTVSS
# VL: EIVMTQSPATLSVSPGERVTLSCRASQSINRNLAWYQQKPGQAPRLLVYDASTRAPGIPTRVSGSGSGTDFTLTISSLQSEDFAVYYCQQYNNWPPITFGQGTRLEIQ
# B6: ABU-291 (antibody, V domains shown)
# VH: B5 VH with V2I, K19R, H32Y, A40V, V93M
# VL: B5 VL with I29V, S63R
# B7: ABU-341 (antibody, V domains shown)
# VH: QVQLQESGPGLVKPSQTLSLTCTVSAGSISSDTYYWSWIRQPAGKGLEWIGRIYTTGSTIYNPSLNSRVLISADTSNNQFSLKLTSVTASDTAVYYCAAHYYSRTDAFHIWGQGTMVTVSS
# VL: DIQMTQSPSSLSASVGDRVTITCRASQSIAKFLNWYQKKPGKAPNLLISTASSFQSGVPSRFSGSGSGTDYTLTISGLQPEDFATYYCQQSYSSPYTFGQGTNLEIK
# B8: ABU-308 (antibody, V domains shown)
# VH: QVQLVQSGAEVKKPGSSVKVSCKASGGTFSSYAISWVRQAPGQGLEWMGGIIPIFGTANYAHKFQGRVTITADESTSTAYMELSSLRSEDTAVYYCATRRGYSGYGAAYYFDYWGQGTLVTVSS
# VL: QSVLTQPPSVSGAPGQRVTISCTGSSSNIGAGYDVHWYQQLPGTAPKLLIYGNSNRPSGVPDRFSGSKSGTSASLAITGLQAEDEADYYCQSYDSSLSGSLFGGGTKLTVL
# B9: ABU-344 (antibody, V domains shown)
# VH: QVQLVQSGAEVKKPGSSVKVSCKASGGTFSSYTISWVRQAPGQGLEWMGRIIPILGIANYAQKFQGRVTITADKSTSTAYMELSSLRSEDTAVYYCARERGYSGSGSLYYFDYWGQGTLVTVSS
# VL: B8 VL with S26N, G52V, S54T, D87H, L101V
# B10: ABU-322 (antibody, V domains shown)
# VH: EVQLVESGGGLIQPGGSLRLSCAASGVIVSRNYMNWVRQAPGKGLEWVSVIYSGGSTFYADSVKGRFTISRDNSKNTLYLQMNSLRAEDTAVYYCARELRGAFDIWGQGTMVTVSS
# VL: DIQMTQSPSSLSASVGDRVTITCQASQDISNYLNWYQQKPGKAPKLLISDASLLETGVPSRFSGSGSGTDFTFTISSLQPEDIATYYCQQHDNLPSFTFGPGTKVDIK
# B11: ABU-382 (antibody, V domains shown)
# VH: B10 VH with V27I, I28T, R31S, N35S, A60S, L99R, R100G, A102R, I105Y, M111L
# VL: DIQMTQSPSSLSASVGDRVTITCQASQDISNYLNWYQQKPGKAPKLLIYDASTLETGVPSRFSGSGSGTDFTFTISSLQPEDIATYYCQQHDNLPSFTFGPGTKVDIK
# B12: ABU-257 (antibody, V domains shown)
# VH: EVQLVESGGGLIQPGGSLRLSCAASGFTVSSNYMSWVRQAPGKGLEWVSVIYSGGSTYYADSVKGRFTISRDNSKNTLYLQMNSLRAEDTAVYYCARVTRAGAAGDGGAFDIWGQGTMVTVSS
# VL: QSALTQPASVSGSPGQSITISCTGTSSDVGSYNLVSWYQQHPGKAPKLMIYEVSKRPSGVSNRFSGSKSGNTASLTISGLQAEDEADYYCCSYAGSSLWVFGGGTKLTVL
# B13: ABU-340 (antibody, V domains shown)
# VH: EVQLVESGGGLVQPGGSLRLSCAASGFTVSSNYMNWVRQAPGKGLEWVSVIYSGGSTYYADSVKGRFTLSRDNSKNTLYLQMNSLRAEDTAVYYCARGQYDILTGYQYGAFDIWGQGTMVTVSS
# VL: B12 VL with S31T, S92T, L98T
# B14: ABU-384 (antibody, V domains shown)
# VH: EVQLVESGGGLVQPGGSLRLSCAASGFTVSSNYMSWVRQAPGKGLEWVSIIYSGGSTYYADSVKGRFTISRDNSKNTLYLQMNSLRAEDTAVYYCARDYAGRVWGQGTLVTVSS
# VL: DIQMTQSPSSLSASVGDRVTITCQASQDIRSYLNWYQQKPGKAPKLLIYDASNLETGVASRFSGSGSGTDFTFTISSLQPEDIATYYCQQYDNLPQTFGQGTKLEIK
# B15: ABU-390 (antibody, V domains shown)
# VH: EVQLVESGGGLVQPGGSLRLSCAASGFTFSSYDMHWVRQATGKGLEWVSVIGTAGDTYYPGSVKGRFTISRENAKNSLYLQMNSLRAGDTAVYYCARDRDNGSGSYLGWAFDIWGQGTMVTVSS
# VL: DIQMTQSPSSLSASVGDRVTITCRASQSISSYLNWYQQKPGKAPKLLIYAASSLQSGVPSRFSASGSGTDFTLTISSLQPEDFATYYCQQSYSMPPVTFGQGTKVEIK
# B16: ABU-190 (antibody, V domains shown)
# VH: EVQLVESGGGLIQPGGSLRLSCAASGITVSSNYMSWVRQAPGKGLEWVSVIYSGGSTDYADSVKGRFTISRDKSKNTLYLQMNSLRAEDTAVYYCARDLGEAGGMDVWGQGTTVTVSS
# VL: AIQLTQSPSSLSASVGDRVTITCRASQGISSYLAWYQQKPGKAPKLLIYAASTLQSGVPSRFSGSGSGTDFTLTISSLQPEDFATYYCQQLNSYPPAFGGGTKVEIK
# B17: ABU-351 (antibody, V domains shown)
# VH: B2 VH with I12V, L27F, S31R, T35S, S56T, F58H, A99L, M100V, S101V
# VL: B16 VL with A1D, S10F, R61S, D70E, P96L, A97T
# B18: ABU-349 (antibody, V domains shown)
# VH: B2 VH with L27F, S31R, T35S, V50L, H72D, S84T, A87S, A99L, M100V, S101V
# VL: B16 VL with A1D, S10F, S56V, D70E, Y87F, P96F, A97T, G100P, E105D
# B19: ABU-357 (antibody, V domains shown)
# VH: B2 VH with I12V, L27V, T35S, F58N, H72D, A99L, M100V
# VL: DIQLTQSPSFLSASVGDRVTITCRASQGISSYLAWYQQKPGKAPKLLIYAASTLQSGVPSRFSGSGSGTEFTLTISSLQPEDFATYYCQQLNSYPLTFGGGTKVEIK
# B20: ABU-346 (antibody, V domains shown)
# VH: EAQLLESGGGLVQPGGSLRLSCAVSGFTVSSYDMSWVRQAPGKRLEWVSFISARGSVTYYADSVRGRFTISRDNFKNTLYVEMNNLRVEDTAVYYCAKGHWSTWGQGTLVTVSS
# VL: DVVLTQSPLSLPVTLGQPASISCRSSHSLVYSDGYTHLHWIQERPGQSPRRLIYSVSHRDSGVPDRFSGSGSATDFTLQISRVEAEDVGVYYCMQGSHWPWTFGQGTKVEIK
# B21: ABU-348 (antibody, V domains shown)
# VH: QVQLVESGGGVVQPGKSLRLSCAASGFTFSSYGMHWVRQAPGKGLEWVAVISNYGSNKYHADSVKGRITISRDNSKNTLYLQMNSLRAEDTAVYYCAKGGYYDILTGYFPFDYWGQGTLVTVSS
# VL: QSALTQPRSVSGSPGQSVTISCTGTSSDVGGYNYVSWYQQYPGKAPKLMIYEVSKRPSGVPDRFSGSKSGNTASLTISGLQAEDEADYYCCSYAGSYTWVFGTGTKVTVL
# B22: ABU-296 (antibody, V domains shown)
# VH: EVQLLESGGGVVQPGGSLRLSCAASGFTFTTYAMNWVRQAPGRGLEWVSAISDSGGSAYYADSVKGRFTISRDNSKNTLYLQMNSLRAEDTAVYYCAKTRGRGLYDYVWGSKDYWGQGTLVTVSS
# VL: not shown
# B23: ABU-297 (antibody, V domains shown)
# VH: B22 VH with T28A, S54G
# VL: not shown
# B24: ABU-383 (antibody, V domains shown)
# VH: EVQLVESGGGLVQPGGSLRLSCAASGFTVSSNYMSWVRQAPGKGLEWVSLIYSGGSTYYADSVKGRFTISRDNSKNTLYLQMNSLRAEDTAVYYCARDRPAAAIRFGQGTLVTVSS
# VL: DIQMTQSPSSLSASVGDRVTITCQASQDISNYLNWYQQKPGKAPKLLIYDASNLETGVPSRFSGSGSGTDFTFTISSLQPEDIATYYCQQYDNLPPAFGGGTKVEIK
# Legend:
# [1] = biological target: biotin-labeled SARS-COV-2 RBD domain (SARS-CoV-2, UniProt P0DTC2 319-541); assay: SPR, Biacore T200, biotin-RBD on SA chip, antibody as analyte
# [2] = biological target: S protein of the novel coronavirus SARS-CoV-2 (SARS-CoV-2, UniProt P0DTC2 14-1273); assay: cell-based or functional assay
Binder,Kd [1],"IC50 for neutralizing SARS-CoV-2 pseudovirus (Huh-7 cells, luciferase) [2]"
B1,< 1 nM,< 0.5 µg/mL
B2,< 10 nM,< 0.1 µg/mL
B3,< 20 nM,
B4,,< 0.1 µg/mL
B5,,< 0.1 µg/mL
B6,,< 0.5 µg/mL
B7,< 10 nM,< 0.1 µg/mL
B8,,< 0.5 µg/mL
B9,,< 1 µg/mL
B10,,< 0.1 µg/mL
B11,< 10 nM,< 0.1 µg/mL
B12,< 10 nM,< 0.5 µg/mL
B13,< 10 nM,< 0.5 µg/mL
B14,< 20 nM,
B15,< 10 nM,
B16,,< 0.1 µg/mL
B17,< 10 nM,< 0.1 µg/mL
B18,< 1 nM,< 0.1 µg/mL
B19,< 10 nM,< 1 µg/mL
B20,< 10 nM,
B21,< 10 nM,
B22,< 1 nM,< 0.1 µg/mL
B23,< 1 nM,< 0.1 µg/mL
B24,< 20 nM,
